This passage reports protein stability index results from the supplement of paper PMC10567573.

First the molecules themselves.
B1: ESRRG (parent)
chain: YSCPATNECEITKRRRKSCQACRF
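Also: lentivirally expressed fusions sorted by FACS into six bins by GFP to DsRed ratio, PSI derived from sequencing read proportions per bin multiplied by bin number.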

Variants of B1 are the subject of this data set. In words: protein stability index of a GFP-peptide fusion (GPS, HEK-293T) (PSI 1-6); higher = more stable. The following applies: c terminus: a fixed tail appended.
For YSCPATNECEITKRRRKSMQACRF [C19M], the protein stability index amounted to 3.42. With YSCPATNECEITKRRRKSKQACRF [C19K], the protein stability index was found to be 3.94. YSCPATNECEITKRRRKSQQACRF [C19Q]: the protein stability index came to 3.78. Next, YSCPATNECEITKRRRKSFQACRF [C19F]: 3.17; YSCPATNECEITKRRRKSAQACRF [C19A]: 3.83. With YSCPATNECEITKRRRKSIQACRF [C19I], the protein stability index was determined as 2.94. As for YSCPATNECEITKRRRKSDQACRF [C19D], the protein stability index stood at 4.09.

For YSCPATNECEITKRRRKSHQACRF [C19H], the protein stability index was 3.69. On to YSCPATNECEITKRRRKSEQACRF [C19E], for which the protein stability index came out at 3.84.

For YSCPATNECEITKRRRKSGQACRF [C19G], the protein stability index is 3.55. Next, YSCPATNECEITKRRRKSLQACRF [C19L]: 3.14. As to YSCPATNECEITKRRRKSNQACRF [C19N], the protein stability index is 3.82. As for YSCPATNECEITKRRRKSPQACRF [C19P], the protein stability index is 3.35. Next, YSCPATNECEITKRRFKSCQACRF [R16F]: 2.92; YSCPATNECEITKRRYKSCQACRF [R16Y]: 3. As to YSCPATNECEITKRRGKSCQACRF [R16G], the protein stability index was 3.66. Next, YSCPATNECEITKRRTKSCQACRF [R16T]: 3.96; YSCPATNECEITKRRVKSCQACRF [R16V]: 3.32; YSCPATNECEITKRRHKSCQACRF [R16H]: 3.8. In the case of YSCPATNECEITKRRLKSCQACRF [R16L], the protein stability index was 2.92. For the variant YSCPATNECEITKRRIKSCQACRF [R16I], the protein stability index is 3.31. YSCPATNECEITKRRNKSCQACRF [R16N]: the protein stability index came out at 3.69. Next, YSCPATNECEITKRRQKSCQACRF [R16Q]: 3.66; YSCPATNECEITKRREKSCQACRF [R16E]: 3.63; YSCPATNECEITKRRWKSCQACRF [R16W]: 3.06. For YSCPATNECEITKRRSKSCQACRF [R16S], the protein stability index came out at 3.8. The same measure for YSCPATNECEITKRRDKSCQACRF [R16D]: 3.75; for YSCPATNECEITKRRAKSCQACRF [R16A]: 3.48; for YSCPATNECEITKRRMKSCQACRF [R16M]: 3.07.

As for YSCPATNECEITKRRPKSCQACRF [R16P], the protein stability index worked out at 3.24. Next, YSCPATNECEITKRRKKSCQACRF [R16K]: 3.62; YSCPATNECEITKRRCKSCQACRF [R16C]: 3.72; YSCPATNECEITKGRRKSCQACRF [R14G]: 3.7.

In the case of YSCPATNECEITKKRRKSCQACRF [R14K], the protein stability index was 3.52. Consider YSCPATNECEITKYRRKSCQACRF [R14Y], for which the protein stability index is 3.17. The same measure for YSCPATNECEITKCRRKSCQACRF [R14C]: 4.61; for YSCPATNECEITKIRRKSCQACRF [R14I]: 3.03; for YSCPATNECEITKPRRKSCQACRF [R14P]: 3.13.

Take YSCPATNECEITKARRKSCQACRF [R14A]: the protein stability index was found to be 3.51. Next, YSCPATNECEITKVRRKSCQACRF [R14V]: 3.03. Next, YSCPATNECEITKNRRKSCQACRF [R14N]: 3.63. Consider YSCPATNECEITKWRRKSCQACRF [R14W], for which the protein stability index worked out at 3.11.

As for YSCPATNECEITKERRKSCQACRF [R14E], the protein stability index is 3.62. The same measure for YSCPATNECEITKFRRKSCQACRF [R14F]: 3.19.

As to YSCPATNECEITKLRRKSCQACRF [R14L], the protein stability index is 2.81. The same measure for YSCPATNECEITKMRRKSCQACRF [R14M]: 3.09. Next, YSCPATNECEITKHRRKSCQACRF [R14H]: 4.23; YSCPATNECEITKQRRKSCQACRF [R14Q]: 3.48. Next, YSCPATNECEITKTRRKSCQACRF [R14T]: 3.42. YSCPATNECEITKSRRKSCQACRF [R14S]: the protein stability index came out at 3.6. Next, YSCPATNECEITKDRRKSCQACRF [R14D]: 3.76; YSCPATNECECTKRRRKSCQACRF [I11C]: 3.83; YSCPATNECEWTKRRRKSCQACRF [I11W]: 3.44. As to YSCPATNECEKTKRRRKSCQACRF [I11K], the protein stability index turned out to be 3.25. For the variant YSCPATNECENTKRRRKSCQACRF [I11N], the protein stability index was 3.55. The same measure for YSCPATNECETTKRRRKSCQACRF [I11T]: 3.69; for YSCPATNECEQTKRRRKSCQACRF [I11Q]: 3.51; for YSCPATNECEGTKRRRKSCQACRF [I11G]: 3.47. Consider YSCPATNECESTKRRRKSCQACRF [I11S], for which the protein stability index is 3.63. Next, YSCPATNECEFTKRRRKSCQACRF [I11F]: 3.26; YSCPATNECEETKRRRKSCQACRF [I11E]: 3.95; YSCPATNECEPTKRRRKSCQACRF [I11P]: 3.58. Next, YSCPATNECELTKRRRKSCQACRF [I11L]: 2.88; YSCPATNECEHTKRRRKSCQACRF [I11H]: 4.47; YSCPATNECEATKRRRKSCQACRF [I11A]: 3.39. The same measure for YSCPATNECEYTKRRRKSCQACRF [I11Y]: 3.04. Regarding YSCPATNECEVTKRRRKSCQACRF [I11V], the protein stability index was determined as 3.25. Next, YSCPATNECERTKRRRKSCQACRF [I11R]: 3.37; YSCPATNECEMTKRRRKSCQACRF [I11M]: 3.14. Next, YSCPATNECEDTKRRRKSCQACRF [I11D]: 3.41.

Take YSCPATNECEITKRRRFSCQACRF [K17F]: the protein stability index is 2.69. With YSCPATNECEITKRRRSSCQACRF [K17S], the protein stability index came out at 3. The same measure for YSCPATNECEITKRRRMSCQACRF [K17M]: 3.06. For YSCPATNECEITKRRRDSCQACRF [K17D], the protein stability index was determined as 3.37.

YSCPATNECEITKRRRGSCQACRF [K17G]: the protein stability index was found to be 3.51. The same measure for YSCPATNECEITKRRRPSCQACRF [K17P]: 2.9; for YSCPATNECEITKRRRVSCQACRF [K17V]: 2.97.

As to YSCPATNECEITKRRRQSCQACRF [K17Q], the protein stability index was 3.29. Next, YSCPATNECEITKRRRRSCQACRF [K17R]: 3.31; YSCPATNECEITKRRRLSCQACRF [K17L]: 3.06.

YSCPATNECEITKRRRHSCQACRF [K17H]: the protein stability index was 3.82. The same measure for YSCPATNECEITKRRRESCQACRF [K17E]: 3.63; for YSCPATNECEITKRRRYSCQACRF [K17Y]: 2.35. Next, YSCPATNECEITKRRRISCQACRF [K17I]: 3.51; YSCPATNECEITKRRRWSCQACRF [K17W]: 2.83; YSCPATNECEITKRRRASCQACRF [K17A]: 3.17. YSCPATNECEITKRRRCSCQACRF [K17C]: the protein stability index is 4.5. For YSCPATNECEITKRRRNSCQACRF [K17N], the protein stability index was 3.25.

Consider YSCPATNECEITKRRRTSCQACRF [K17T], for which the protein stability index was 2.92. YSCPATNECEITKRRRKACQACRF [S18A]: the protein stability index is 3.58. As to YSCPATNECEITKRRRKWCQACRF [S18W], the protein stability index is 2.93. Next, YSCPATNECEITKRRRKVCQACRF [S18V]: 3.08; YSCPATNECEITKRRRKGCQACRF [S18G]: 2.74; YSCPATNECEITKRRRKNCQACRF [S18N]: 3.44.
